Data: patent US20260176352A1 (BIRD ROCK BIO, published 2026)
Residue numbers refer to the chain shown, from its start. Where “and” joins values, the source holds several entries; their conditions need not be identical. Identical values can stand only once.

How the values were obtained:
[1] = target: T1, A138 iCAPS (CB1 with ICL3 native sequence replaced with protein 1 sequence) (human, UniProt P21554 99-414); assay: ELISA, purified IgG on A138 CB1 iCAPS
T1 construct: The insert stands inside the chain in place of ICL3
Procedure: (§1) Purified IgG was tested for binding to purified CB1 receptor (CB1 Conformation Antigen Presenting System (iCAPS)) by ELISA. Non-biotinylated antigens (e.g. empty iCAPS) were coated directly on Maxisorp plates. The primary antibodies were purified IgGs with 1:3 serial dilutions, incubated on the plate for 1 hour. After 3 rounds of washing with PBST, secondary antibodies HRP goat anti-mouse IgG (Abmart) or HRP goat anti-human IgG (Sigma), depending on the species of the IgGs were added and incubated for another hour. The plates were washed three times with PBST, then developed with TMB (Biopanda). HCl was added to the plates to stop the reaction. Absorbance at 450 nm was read on Emax precision microplate reader (Molecular Devices).

[2] = target: T2, A139 iCAPS (CB1 with ICL3 native sequence replaced with BRIL) (human, UniProt P21554 99-414); assay: ELISA, purified IgG on A139 CB1 iCAPS
T2 construct: The insert stands inside the chain in place of ICL3
Procedure: as §1

[3] = target: T3, native full length human CB1 receptor (cannabinoid 1 receptor) (human, UniProt P21554 1-472); assay: binding to CB1 cells (FIG. 12); unlabeled P4B5
T3 construct: whole, on cells; also called A156; Native human CB1 TRex CHO A156

[4] = target: T3, native full length human CB1 receptor …; assay: cell-based or functional assay
[5] = target: T3, native full length human CB1 receptor …; assay: cell-based or functional assay; remark: listed apart in the source
[6] = target: T3, native full length human CB1 receptor …; assay: cell-based or functional assay; remark: listed apart in the source
[7] = target: T4, TRex CHO A56 over-expressed CB1 (CB1 T210A/fusion partner) (UniProt P21554 1-472); assay: flow cytometry, TRexCHO A56 cells
T4 construct: whole, on cells; The fusion partner stands inside the CB1 chain in place of ICL3, not at its end; also called Trex-CHO CB1 T210A/fusion partner; not shown: fusion partner that replaces ICL3
Procedure: (§2) After being washed with 200 μl of FACS buffer twice, cells were incubated with PE conjugated anti-human secondary antibody (Southern Biotech) for 30 minutes on ice. Cells were washed with 200 μl of FACS buffer twice and transferred to BD Falcon 5 ml tube and analyzed by flow cytometry (BD FACScalibur).

[8] = target: T3, native full length human CB1 receptor …; assay: flow cytometry, TRexCHO A156 cells
Procedure: as §2

[9] = target: T4, TRex CHO A56 over-expressed CB1 (CB1 …); assay: flow cytometry, A56 cells; batch 1.01 mg/ml
Procedure: (§3) To further assess TRex CHO parental cells, TRex CHO A56 overexpressed CB1, Native human CB1 TRex CHO A156, 5HT2B, Mouse CB1 and human CB2 were used to examine the specificity of IgG binding. 100 μl of 1×10⁶ cells/ml of cells were incubated with primary antibody IgGs in 3-fold serial dilutions starting from 1 μM to 0.5 nM for 30 minutes on ice. After being washed with 200 μl of FACS buffer twice, cells were incubated with secondary antibody for 30 minutes on ice. Cells were washed with 200 μl of FACS buffer twice and transferred to BD Falcon 5 ml tube and analyzed by FACS.
(§4) For selected binders, full binding curves were generated on CB1 receptor by testing a range of concentrations. Three-fold serial dilutions from 1 μM to 0.1 μM were prepared. Selectivity was determined by measuring binding to cells expressing 5HT2B or CB2, relative to binding to A156 (native human CB1 receptor expressing) or A56 (overexpressed-CB1 receptor with the T210A modification and ICL3 replacement with fusion partner) by flow cytometry. […] PE-conjugated anti-mouse (for detection of anti-CB2) and PE conjugated anti-human antibodies were used to detect CB2 and 5HT2B, respectively.

[10] = target: T4, TRex CHO A56 over-expressed CB1 (CB1 …); assay: flow cytometry, A56 cells; batch 1.25 mg/ml
Procedure: as §3, §4

[11] = target: T3, native full length human CB1 receptor …; assay: flow cytometry, A156 cells; batch 0.49 mg/ml
Procedure: as §3, §4

[12] = target: T3, native full length human CB1 receptor …; assay: flow cytometry, A156 cells; batch 1.01 mg/ml
Procedure: as §3, §4

[13] = target: T3, native full length human CB1 receptor …; assay: flow cytometry, A156 cells; batch 1.25 mg/ml
Procedure: as §3, §4

[14] = target: T3, native full length human CB1 receptor …; assay: flow cytometry, IgG titrated on cells
Procedure: as §3, §4

[15] = target: T4, TRex CHO A56 over-expressed CB1 (CB1 …); assay: flow cytometry, IgG titrated on cells
Procedure: as §3, §4

[16] = target: 5HT2B (expression cell line) (Homo sapiens (Human), UniProt P41595 1-481); assay: flow cytometry, IgG titrated on cells
5HT2B (expression cell line), sequence (P41595 whole entry): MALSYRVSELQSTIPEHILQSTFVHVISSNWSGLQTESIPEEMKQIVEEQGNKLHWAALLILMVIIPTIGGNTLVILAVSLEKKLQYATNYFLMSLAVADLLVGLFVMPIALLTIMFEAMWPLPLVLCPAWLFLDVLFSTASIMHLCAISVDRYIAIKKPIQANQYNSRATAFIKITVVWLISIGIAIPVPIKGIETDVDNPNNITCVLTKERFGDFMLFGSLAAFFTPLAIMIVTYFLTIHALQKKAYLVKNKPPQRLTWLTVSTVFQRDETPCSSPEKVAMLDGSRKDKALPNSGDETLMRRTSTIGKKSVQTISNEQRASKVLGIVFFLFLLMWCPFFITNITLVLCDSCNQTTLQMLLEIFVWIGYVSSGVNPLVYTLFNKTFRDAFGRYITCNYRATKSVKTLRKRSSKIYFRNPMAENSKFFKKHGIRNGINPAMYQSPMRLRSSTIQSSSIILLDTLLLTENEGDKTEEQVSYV
Procedure: as §3, §4

[17] = target: T3, native full length human CB1 receptor …; assay: flow cytometry, TRex-CHO human CB1 cells; mean ± SD
Procedure: (§5) TRex CHO parental cells, and TRex-CHO cells stably transfected with tetracycline inducible human CB1, human CB2 or mouse CB1 expression constructs were harvested. […] Cells were then centrifuged at 4° C. at 1600 rpm for 3 minutes; supernatant was aspirated and cells were washed with 200 μL FACS buffer. The washing procedure was repeated twice. After the final wash, cells were re-suspended in FACS buffer containing PE-conjugated anti-human Fc secondary antibody (1:200 dilutions) and incubated at 4° C. for 30 minutes. Cells were washed with 200 μL FACS buffer twice and analyzed by flow cytometry (Guava). Data analysis and measurement of binding affinity (KD) was performed using GraphPad Prism software.

[18] = target: T3, native full length human CB1 receptor …; assay: flow cytometry, TRex-CHO human CB1 cells; mean of batch 1
Procedure: as §5

[19] = target: T3, native full length human CB1 receptor …; assay: flow cytometry, TRex-CHO human CB1 cells; mean of batch 2
Procedure: as §5

[20] = target: T3, native full length human CB1 receptor …; assay: flow cytometry, TRex-CHO human CB1 cells; mean of batch 3
Procedure: as §5

mouse CB1 [21] = target: T5, mouse CB1 (mouse, UniProt P47746 1-473); assay: flow cytometry on TRex-CHO mouse CB1 cells, lower panel
T5 construct: whole, on cells; also called TRexCHO Mouse CB1
T5 sequence (P47746 whole entry): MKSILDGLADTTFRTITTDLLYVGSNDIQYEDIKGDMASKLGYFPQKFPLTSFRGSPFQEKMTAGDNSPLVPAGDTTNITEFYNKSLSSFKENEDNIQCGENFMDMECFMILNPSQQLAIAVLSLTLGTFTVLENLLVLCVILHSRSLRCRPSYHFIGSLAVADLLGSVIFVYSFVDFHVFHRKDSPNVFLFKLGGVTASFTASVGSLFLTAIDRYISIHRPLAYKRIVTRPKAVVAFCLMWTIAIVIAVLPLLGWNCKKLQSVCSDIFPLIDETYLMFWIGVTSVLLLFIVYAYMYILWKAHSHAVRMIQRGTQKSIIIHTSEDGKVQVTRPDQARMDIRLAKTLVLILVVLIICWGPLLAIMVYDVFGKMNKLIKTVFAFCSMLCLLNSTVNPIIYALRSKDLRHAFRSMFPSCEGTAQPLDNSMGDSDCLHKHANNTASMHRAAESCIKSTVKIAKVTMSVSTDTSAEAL
Procedure: as §2

human CB2 [22] = target: T6, human CB2 (human, UniProt P34972 1-360); assay: flow cytometry on TRex-CHO human CB2 cells, middle panel
T6 construct: whole, on cells; also called TRexCHO Human CB2
T6 sequence (P34972 whole entry): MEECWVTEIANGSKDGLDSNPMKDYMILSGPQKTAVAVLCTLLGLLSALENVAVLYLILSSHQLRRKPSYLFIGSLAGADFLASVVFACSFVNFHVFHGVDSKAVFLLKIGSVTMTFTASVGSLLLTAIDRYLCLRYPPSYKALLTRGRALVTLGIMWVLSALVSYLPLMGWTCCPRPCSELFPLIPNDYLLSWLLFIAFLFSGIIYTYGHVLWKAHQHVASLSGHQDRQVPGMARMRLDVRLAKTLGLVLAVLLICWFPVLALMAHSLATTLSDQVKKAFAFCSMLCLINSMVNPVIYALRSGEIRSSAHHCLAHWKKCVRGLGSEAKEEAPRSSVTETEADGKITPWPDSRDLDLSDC
Procedure: as §2

[23] = target: T3, native full length human CB1 receptor …; assay: flow cytometry on TRex-CHO cells with tetracycline inducible human CB1
Procedure: as §5

[24] = target: T3, native full length human CB1 receptor …; assay: flow cytometry, A156 cells; batch 1.01 mg/ml; A156 cells; batch 1.01 mg/ml, first of two such rows
Procedure: as §3, §4

mouse CB1 [25] = target: T5, mouse CB1; assay: flow cytometry on cells expressing the target
[26] = target: T4, TRex CHO A56 over-expressed CB1 (CB1 …); assay: flow cytometry, A56 cells; batch 5.9 mg/ml
Procedure: as §3, §4

[27] = target: T3, native full length human CB1 receptor …; assay: flow cytometry, A156 cells; batch 5.9 mg/ml
Procedure: as §3, §4

[28] = target: T4, TRex CHO A56 over-expressed CB1 (CB1 …); assay: flow cytometry, A56 cells; batch 4.85 mg/ml
Procedure: as §3, §4

[29] = target: T4, TRex CHO A56 over-expressed CB1 (CB1 …); assay: flow cytometry, A56 cells; batch 5.28 mg/ml
Procedure: as §3, §4

[30] = target: T4, TRex CHO A56 over-expressed CB1 (CB1 …); assay: flow cytometry, A56 cells; batch 5.78 mg/ml
Procedure: as §3, §4

[31] = target: T3, native full length human CB1 receptor …; assay: flow cytometry, A156 cells; batch 4.85 mg/ml
Procedure: as §3, §4

[32] = target: T3, native full length human CB1 receptor …; assay: flow cytometry, A156 cells; batch 5.28 mg/ml
Procedure: as §3, §4

[33] = target: T3, native full length human CB1 receptor …; assay: flow cytometry, A156 cells; batch 5.78 mg/ml
Procedure: as §3, §4

human CB2 [34] = target: T6, human CB2; assay: flow cytometry, IgG titrated on cells
Procedure: as §3, §4

[35] = target: T3, native full length human CB1 receptor …; assay: binding to CB1 cells (FIG. 12); labeled with Vivotag 680 XL

B1: PA2LR3-P4B5 (chimeric) (antibody, human IgG1, kappa, V domains shown)
VH: EVQLQQSGAELVRPGSSVKISCKASGYAFSYYWMNWVKQRPGQGLEWIGQIYPGDGDTNYSGRFKGKATLTADKSSSTAYIQLSSLTSEDSAVYFCARSHGNYFPYWGQGTLVTVSA
VL: DIVLNQSPAIMSASLGERVTMTCTASSSVSSSYLHWYQQKPGSSPKLWIYSTSNLASGVPARFSGSGSGTSYSLTISSMEAEDAATYYCHQYHRSPLTFGAGTKLEIKR
[1]
  EC50: 0.24 nM
[2]
  EC50: 0.24 nM
[3]
  EC50: 60.5 nM

B2: PA13R3-P1C4 (chimeric) IgG (antibody, V domains shown)
VH: B1 VH with S16V, A28E, D57E, N59K, S61N, R63K, S77N, I81M, F104L
VL: B1 VL with N5T, L97P, I107L
notes: Phage-derived mouse variable regions on human constant regions; also called Chimeric P1C4-IgG; PA13R3-P1C4 IgG
[4]
  IC50, cAMP functional antagonist assay: 90 nM
[5]
  IC50 (nM), cAMP assay: 93 nM
[6]
  cAMP IC50 (nM) Mean of Batch 1 [n]: 120 nM
  cAMP IC50 (nM) Mean of Batch 2 [n]: 155 nM
[7]
  Kd: 10.5 nM
[8]
  Kd: 25 nM
[1]
  EC50: 0.172 nM
[2]
  EC50: 0.175 nM
[9]
  Kd: 27.3 nM
[10]
  Kd: 50.6 nM
[11]
  Kd: 187 nM
[12]
  Kd: 171 nM
[13]
  Kd: 72.6 nM
[14]
  EC50 (read off the curve): ~30 nM
[15]
  EC50 (read off the curve): ~20 nM
[16]
  binding result: no binding (tested: 1000 nM)
[17]
  Kd: 103 nM
[18]
  Kd: 92 nM
[19]
  Kd: 116 nM
[20]
  Kd: 96 nM
Mouse CB1 [21]
  binding result: no binding (tested: about 300 nM (last point))
Human CB2 [22]
  binding result: no binding (tested: about 300 nM (last point))
[23]
  EC50 (read off the curve): ~60 nM and ~40 nM
[24]
  Kd: 40.5 nM

B3: 36E12B6C2 IgG (hybridoma-derived) (antibody, V domains shown)
VH: QVQLQQSGAELVRPGSSVKISCKASGYEFSYYWMNWVKQRPGQGLQWIGQIYPGDGDTNYNGKFKGKATLTADKSSSTAYMHLTSLTSEDSAVYFCARSGGNPFAFWGQGTLVTVSA
VL: DIQMTQTSSSLSASLGDRVTFSCRASQDISNYLNWYQQKPDGTVKLLIYYTSRLHSGVTSRFRGSGSGTDYSLTISNLEQEDVATYFCQQGHTLPWSFGGGTKLEIKR
Mouse CB1 [25]
  binding result: no binding (tested: 1 µM)
[26]
  Kd: 60.2 nM
[27]
  Kd: 26 nM
[28]
  Kd: 29.3 nM
[29]
  Kd: 51.9 nM
[30]
  Kd: 69.4 nM
[31]
  Kd: 64 nM
[32]
  Kd: 27.7 nM
[33]
  Kd: 151 nM
[14]
  EC50 (read off the curve): ~60 nM
[15]
  EC50 (read off the curve): ~40 nM
Human CB2 [34]
  binding result: no binding (tested: 1000 nM)
[16]
  binding result: no binding (tested: 1000 nM)

B4: P4B5 antibody labeled with Vivotag 680 XL (antibody, human IgG1, kappa, V domains shown)
VH: B1 VH
VL: B1 VL
modifications: Vivotag 680 XL label, site and chain not stated
notes: also called Labeled P4B5
[35]
  EC50: 57.8 nM
